{
  "source": "paper PMC6402204",
  "about": "“Production Optimization of an Active β-Galactosidase of Bifidobacterium animalis in Heterologous Expression Systems” (BioMed Research International, 2019)",
  "proteins": {"B1": {"name": "bG42-106 (Bifidobacterium animalis subsp. lactis) (protein)", "chain": "MSASTQHRAHRWPQPLPGNDRKIWFGADYNPDQWPEDVQDEDIRLMKQAGVNIVSLAIFSWANIETSDGNFEFDWLDRVIDKLYKAGIAVDLASATASPPMWLTSAHPEVLRRDEQGHVIWPGARQHWRPTSPTFRTYALRLCREMAEHYKDNPAIVSWHVGNEYGCHNYFDYSDDAVQAFREWCRDRYGTIDKVNAAWGTNFWSQRLNSFEEILPPRYVGGEGNFTNPGRLLDFKHFCSDALKEFFCAERDVLSEVTPNIPLTTNFMVSASQNTLDYDDWAHEVDFVSNDHYFTPGSWHIDELAYSASLVDGISRKKPWFLMEQSTSAVNWREINPRKEPGELIRDSMLHLAMGADAICYFQWRQSRSGAEKFHSAMLPLAGEHSQIYRDVCALGADLDTLSDAGILRSKLSKARVAIVQDIQSEWATEHTATPTQHIREWTEPLDWFAAFANRGVTADVTPIHAQWDTYDAVVIPCVYLFSEEMAERLRTFVRNGGKAFVTYYSALADEHDRLHTEGWPGLIGDVVGVRIEEHCPLGTLFPGMLDHLDVSNGTVVHDLADVIDAIADDTTVLATFEADPATGMDGRAAITVHPYHEGGVAYIAGKLGRDGISQSLPEICAALGFELDADPRAGDVLRVVREQEDGAIFEFLFNRTRNTVTADRPAGDMLICSLATDSTDKVTLEPNGVLAFRR", "notes": "full-length, 695 residues, 78 kDa calculated, no signal peptide; C-terminal His6 (pET-30a(+)), E. coli BL21(DE3), Ni-NTA purified; homodimer by native PAGE (~180 kDa)"}},
  "substrate": "O=[N+]([O-])c1ccccc1O[C@@H]1O[C@H](CO)[C@H](O)[C@H](O)[C@H]1O",
  "experiment": "purified protein",
  "format": "biochemical, Bifidobacterium animalis",
  "details": "pH 6.0, 100 mM Na2HPO4-citric acid, 60°C, oNPG 1.38-25 mM, free enzyme",
  "data": [
    {"protein": "B1", "values": [
      {"measurement": "Km", "result": 5.14, "unit": "mM"}
    ]}
  ]
}
